Earlier results in patent publication US6770020B2 (priority 2001, dated 2004).

Conditions: cited from earlier work

For “Gd-DTPA-hydroxypropylpoly(D-lysine) [Gd-DTPA-pdl]”, the membrane permeability is listed as “membrane impermeable”.
